# Experimental data from the supplement of paper PMC5998384.
# Legend:
# HeLa Kyoto [1] = assay: solubility in G1/S (NP-40 vs SDS abundance) (log2 ratio); higher = more soluble; conditions: cell cycle stage: G1/S
# HeLa Kyoto [2] = assay: solubility change mitosis vs G1/S (difference of NP-40 vs SDS log2 ratios) (log2 ratio difference); higher = more soluble in mitosis
# HeLa Kyoto [3] = assay: melting temperature (median over replicates), in situ; higher = more thermally stable
# HeLa Kyoto [4] = assay: thermal stability score vs G1/S (z-score of summed log2 fold changes over temperatures); higher = more thermally stable than in G1/S
# [5] = cell cycle stage: early G1 (4.5 h after nocodazole release)
# 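Wherever melting temperature (median over replicates), in situ is given: HeLa Kyoto cells synchronized by double thymidine or nocodazole block, proteins quantified by TMT10plex mass spectrometry, three independent biological replicates.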
# 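Wherever solubility change mitosis vs G1/S (difference of NP-40 vs SDS log2 ratios) is given: synchronized HeLa Kyoto cells (double thymidine block for G1/S, nocodazole release for mitosis), protein amounts in NP-40 versus SDS lysates quantified by mass spectrometry, three biological replicates.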
# 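Wherever solubility in G1/S (NP-40 vs SDS abundance) is given: HeLa Kyoto cells arrested at G1/S by double thymidine block, proteins quantified by TMT10plex mass spectrometry in mild NP-40 versus SDS extracts, three biological replicates.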
# 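Wherever thermal stability score vs G1/S (z-score of summed log2 fold changes over temperatures) is given: synchronized HeLa Kyoto cells, proteins quantified by TMT10plex mass spectrometry, three biological replicates, mitosis taken 0.5 h after nocodazole release, G1/S directly after double thymidine block.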
# Chain of CDK12 (chain, as listed by the source): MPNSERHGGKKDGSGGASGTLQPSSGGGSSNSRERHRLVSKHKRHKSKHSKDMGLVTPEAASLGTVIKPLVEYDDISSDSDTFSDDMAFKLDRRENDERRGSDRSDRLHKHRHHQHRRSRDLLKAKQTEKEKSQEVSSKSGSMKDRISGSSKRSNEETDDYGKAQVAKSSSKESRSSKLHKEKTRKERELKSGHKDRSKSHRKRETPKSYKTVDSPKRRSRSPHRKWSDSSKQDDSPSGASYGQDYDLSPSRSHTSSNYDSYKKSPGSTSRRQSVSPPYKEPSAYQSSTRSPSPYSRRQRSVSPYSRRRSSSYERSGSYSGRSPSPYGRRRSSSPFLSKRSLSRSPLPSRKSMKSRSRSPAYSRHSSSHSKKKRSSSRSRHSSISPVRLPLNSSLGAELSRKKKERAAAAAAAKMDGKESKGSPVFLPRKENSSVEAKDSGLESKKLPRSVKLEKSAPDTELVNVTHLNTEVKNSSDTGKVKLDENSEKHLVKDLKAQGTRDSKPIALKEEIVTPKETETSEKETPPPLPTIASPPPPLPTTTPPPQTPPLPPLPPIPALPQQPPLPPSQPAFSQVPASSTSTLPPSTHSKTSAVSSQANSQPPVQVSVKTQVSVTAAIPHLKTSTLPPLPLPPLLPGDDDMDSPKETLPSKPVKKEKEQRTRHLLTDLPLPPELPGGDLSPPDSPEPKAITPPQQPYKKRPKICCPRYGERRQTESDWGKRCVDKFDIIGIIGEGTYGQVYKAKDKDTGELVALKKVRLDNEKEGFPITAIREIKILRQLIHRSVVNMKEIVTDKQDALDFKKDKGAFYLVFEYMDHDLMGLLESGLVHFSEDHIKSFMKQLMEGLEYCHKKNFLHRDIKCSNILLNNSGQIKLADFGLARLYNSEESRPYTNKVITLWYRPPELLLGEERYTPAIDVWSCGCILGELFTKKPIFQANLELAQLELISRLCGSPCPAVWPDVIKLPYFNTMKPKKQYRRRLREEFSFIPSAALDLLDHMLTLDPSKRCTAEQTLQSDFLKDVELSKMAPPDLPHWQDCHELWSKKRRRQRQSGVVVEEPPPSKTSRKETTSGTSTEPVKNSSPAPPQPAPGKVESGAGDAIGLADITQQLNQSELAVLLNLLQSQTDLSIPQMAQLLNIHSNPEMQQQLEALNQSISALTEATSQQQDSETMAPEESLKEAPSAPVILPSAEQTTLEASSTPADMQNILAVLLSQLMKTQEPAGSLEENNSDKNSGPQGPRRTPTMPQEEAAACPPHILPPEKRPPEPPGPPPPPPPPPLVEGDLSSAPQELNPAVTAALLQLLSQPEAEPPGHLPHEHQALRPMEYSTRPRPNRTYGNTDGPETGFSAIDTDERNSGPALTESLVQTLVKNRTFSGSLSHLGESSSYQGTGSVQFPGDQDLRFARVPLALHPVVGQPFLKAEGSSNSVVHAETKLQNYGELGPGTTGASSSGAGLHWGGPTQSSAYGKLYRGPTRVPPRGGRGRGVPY
# Chain of CKB (chain, as listed by the source): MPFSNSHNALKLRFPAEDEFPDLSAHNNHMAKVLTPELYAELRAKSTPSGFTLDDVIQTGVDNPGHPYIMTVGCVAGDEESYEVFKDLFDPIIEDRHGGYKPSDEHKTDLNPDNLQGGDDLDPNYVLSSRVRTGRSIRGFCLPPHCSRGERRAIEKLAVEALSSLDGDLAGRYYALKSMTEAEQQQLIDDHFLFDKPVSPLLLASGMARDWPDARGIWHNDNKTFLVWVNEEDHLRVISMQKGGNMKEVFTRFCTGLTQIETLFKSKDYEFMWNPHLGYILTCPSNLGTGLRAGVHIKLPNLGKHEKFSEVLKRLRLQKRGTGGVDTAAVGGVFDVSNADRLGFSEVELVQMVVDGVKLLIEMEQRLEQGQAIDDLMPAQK
Substance,solubility in G1/S (log2) (HeLa Kyoto [1]),solubility change mitosis (log2) (HeLa Kyoto [2]),melting temperature (HeLa Kyoto [3]; cell cycle stage: G1/S) [°C],melting temperature (HeLa Kyoto [3]; cell cycle stage: mitosis) [°C],thermal stability score (HeLa Kyoto [4]; [5]),thermal stability score (HeLa Kyoto [4]; cell cycle stage: mitosis)
MPVRGDRGFPPRRELSGWLRAPGMEELIWEQYTVTLQKDSKRGFGIAVSGGRDNPHFENGETSIVISDVLPGGPADGLLQENDRVVMVNGTPMEDVLHSFAVQQLRKSGKVAAIVVKRPRKVQVAALQASPPLDQDDRAFEVMDEFDGRSFRSGYSERSRLNSHGGRSRSWEDSPERGRPHERARSRERDLSRDRSRGRSLERGLDQDHARTRDRSRGRSLERGLDHDFGPSRDRDRDRSRGRSIDQDYERAYHRAYDPDYERAYSPEYRRGARHDARSRGPRSRSREHPHSRSPSPEPRGRPGPIGVLLMKSRANEEYGLRLGSQIFVKEMTRTGLATKDGNLHEGDIILKINGTVTENMSLTDARKLIEKSRGKLQLVVLRDSQQTLINIPSLNDSDSEIEDISEIESNRSFSPEERRHQYSDYDYHSSSEKLKERPSSREDTPSRLSRMGATPTPFKSTGDIAGTVVPETNKEPRYQEDPPAPQPKAAPRTFLRPSPEDEAIYGPNTKMVRFKKGDSVGLRLAGGNDVGIFVAGIQEGTSAEQEGLQEGDQILKVNTQDFRGLVREDAVLYLLEIPKGEMVTILAQSRADVYRDILACGRGDSFFIRSHFECEKETPQSLAFTRGEVFRVVDTLYDGKLGNWLAVRIGNELEKGLIPNKSRAEQMASVQNAQRDNAGDRADFWRMRGQRSGVKKNLRKSREDLTAVVSVSTKFPAYERVLLREAGFKRPVVLFGPIADIAMEKLANELPDWFQTAKTEPKDAGSEKSTGVVRLNTVRQIIEQDKHALLDVTPKAVDLLNYTQWFPIVIFFNPDSRQGVKTMRQRLNPTSNKSSRKLFDQANKLKKTCAHLFTATINLNSANDSWFGSLKDTIQHQQGEAVWVSEGKMEGMDDDPEDRMSYLTAMGADYLSCDSRLISDFEDTDGEGGAYTDNELDEPAEEPLVSSITRSSEPVQHEESIRKPSPEPRAQMRRAASSDQLRDNSPPPAFKPEPPKAKTQNKEESYDFSKSYEYKSNPSAVAGNETPGASTKGYPPPVAAKPTFGRSILKPSTPIPPQEGEEVGESSEEQDNAPKSVLGKVKIFEKMDHKARLQRMQELQEAQNARIEIAQKHPDIYAVPIKTHKPDPGTPQHTSSRPPEPQKAPSRPYQDTRGSYGSDAEEEEYRQQLSEHSKRGYYGQSARYRDTEL [TJP2],-0.246,0.000921,48.1,49.2,1,2.91
CDK12,-0.473,0.238,50.9,52.5,-0.391,0.677
MSVRVARVAWVRGLGASYRRGASSFPVPPPGAQGVAELLRDATGAEEEAPWAATERRMPGQCSVLLFPGQGSQVVGMGRGLLNYPRVRELYAAARRVLGYDLLELSLHGPQETLDRTVHCQPAIFVASLAAVEKLHHLQPSVIENCVAAAGFSVGEFAALVFAGAMEFAEGLYAVKIRAEAMQEASEAVPSGMLSVLGQPQSKFNFACLEAREHCKSLGIENPVCEVSNYLFPDCRVISGHQEALRFLQKNSSKFHFRRTRMLPVSGAFHTRLMEPAVEPLTQALKAVDIKKPLVSVYSNVHAHRYRHPGHIHKLLAQQLVSPVKWEQTMHAIYERKKGRGFPQTFEVGPGRQLGAILKSCNMQAWKSYSAVDVLQTLEHVDLDPQEPPR [MCAT],0.3,-0.00154,53.7,54.9,-1.29,-2.74
MCM3AP,-0.867,0.655,48.7,49.5,-0.00305,-0.291
CKB,0.651,-0.115,51,51.3,1.63,2
MTGNAGEWCLMESDPGVFTELIKGFGCRGAQVEEIWSLEPENFEKLKPVHGLIFLFKWQPGEEPAGSVVQDSRLDTIFFAKQVINNACATQAIVSVLLNCTHQDVHLGETLSEFKEFSQSFDAAMKGLALSNSDVIRQVHNSFARQQMFEFDTKTSAKEEDAFHFVSYVPVNGRLYELDGLREGPIDLGACNQDDWISAVRPVIEKRIQKYSEGEIRFNLMAIVSDRKMIYEQKIAELQRQLAEEEPMDTDQGNSMLSAIQSEVAKNQMLIEEEVQKLKRYKIENIRRKHNYLPFIMELLKTLAEHQQLIPLVEKAKEKQNAKKAQETK [UCHL5],0.533,-0.0948,48.7,48.9,1.19,2.51
EP300,-0.0947,-0.0909,50.8,51.6,-0.227,1.93
MLTRVKSAVANFMGGIMAGSSGSEHGGGSCGGSDLPLRFPYGRPEFLGLSQDEVECSADHIARPILILKETRRLPWATGYAEVINAGKSTHNEDQASCEVLTVKKKAGAVTSTPNRNSSKRRSSLPNGEGLQLKENSESEGVSCHYWSLFDGHAGSGAAVVASRLLQHHITEQLQDIVDILKNSAVLPPTCLGEEPENTPANSRTLTRAASLRGGVGAPGSPSTPPTRFFTEKKIPHECLVIGALESAFKEMDLQIERERSSYNISGGCTALIVICLLGKLYVANAGDSRAIIIRNGEIIPMSSEFTPETERQRLQYLAFMQPHLLGNEFTHLEFPRRVQRKELGKKMLYRDFNMTGWAYKTIEDEDLKFPLIYGEGKKARVMATIGVTRGLGDHDLKVHDSNIYIKPFLSSAPEVRIYDLSKYDHGSDDVLILATDGLWDVLSNEEVAEAITQFLPNCDPDDPHRYTLAAQDLVMRARGVLKDRGWRISNDRLGSGDDISVYVIPLIHGNKLS [PPM1H],0.29,0.221,55.9,56.9,-2.63,-1.3
MAGDLSAGFFMEELNTYRQKQGVVLKYQELPNSGPPHDRRFTFQVIIDGREFPEGEGRSKKEAKNAAAKLAVEILNKEKKAVSPLLLTTTNSSEGLSMGNYIGLINRIAQKKRLTVNYEQCASGVHGPEGFHYKCKMGQKEYSIGTGSTKQEAKQLAAKLAYLQILSEETSVKSDYLSSGSFATTCESQSNSLVTSTLASESSSEGDFSADTSEINSNSDSLNSSSLLMNGLRNNQRKAKRSLAPRFDLPDMKETKYTVDKRFGMDFKEIELIGSGGFGQVFKAKHRIDGKTYVIKRVKYNNEKAEREVKALAKLDHVNIVHYNGCWDGFDYDPETSDDSLESSDYDPENSKNSSRSKTKCLFIQMEFCDKGTLEQWIEKRRGEKLDKVLALELFEQITKGVDYIHSKKLIHRDLKPSNIFLVDTKQVKIGDFGLVTSLKNDGKRTRSKGTLRYMSPEQISSQDYGKEVDLYALGLILAELLHVCDTAFETSKFFTDLRDGIISDIFDKKEKTLLQKLLSKKPEDRPNTSEILRTLTVWKKSPEKNERHTC [EIF2AK2],-0.283,-0.0511,47.1,48,1.01,3.12
MSWSPSLTTQTCGAWEMKERLGTGGFGNVIRWHNQETGEQIAIKQCRQELSPRNRERWCLEIQIMRRLTHPNVVAARDVPEGMQNLAPNDLPLLAMEYCQGGDLRKYLNQFENCCGLREGAILTLLSDIASALRYLHENRIIHRDLKPENIVLQQGEQRLIHKIIDLGYAKELDQGSLCTSFVGTLQYLAPELLEQQKYTVTVDYWSFGTLAFECITGFRPFLPNWQPVQWHSKVRQKSEVDIVVSEDLNGTVKFSSSLPYPNNLNSVLAERLEKWLQLMLMWHPRQRGTDPTYGPNGCFKALDDILNLKLVHILNMVTGTIHTYPVTEDESLQSLKARIQQDTGIPEEDQELLQEAGLALIPDKPATQCISDGKLNEGHTLDMDLVFLFDNSKITYETQISPRPQPESVSCILQEPKRNLAFFQLRKVWGQVWHSIQTLKEDCNRLQQGQRAAMMNLLRNNSCLSKMKNSMASMSQQLKAKLDFFKTSIQIDLEKYSEQTEFGITSDKLLLAWREMEQAVELCGRENEVKLLVERMMALQTDIVDLQRSPMGRKQGGTLDDLEEQARELYRRLREKPRDQRTEGDSQEMVRLLLQAIQSFEKKVRVIYTQLSKTVVCKQKALELLPKVEEVVSLMNEDEKTVVRLQEKRQKELWNLLKIACSKVRGPVSGSPDSMNASRLSQPGQLMSQPSTASNSLPEPAKKSEELVAEAHNLCTLLENAIQDTVREQDQSFTALDWSWLQTEEEEHSCLEQAS [IKBKB],0.0875,-0.171,48.3,49.2,1.13,2.17
MWRVCARRAQNVAPWAGLEARWTALQEVPGTPRVTSRSGPAPARRNSVTTGYGGVRALCGWTPSSGATPRNRLLLQLLGSPGRRYYSLPPHQKVPLPSLSPTMQAGTIARWEKKEGDKINEGDLIAEVETDKATVGFESLEECYMAKILVAEGTRDVPIGAIICITVGKPEDIEAFKNYTLDSSAAPTPQAAPAPTPAATASPPTPSAQAPGSSYPPHMQVLLPALSPTMTMGTVQRWEKKVGEKLSEGDLLAEIETDKATIGFEVQEEGYLAKILVPEGTRDVPLGTPLCIIVEKEADISAFADYRPTEVTDLKPQVPPPTPPPVAAVPPTPQPLAPTPSAPCPATPAGPKGRVFVSPLAKKLAVEKGIDLTQVKGTGPDGRITKKDIDSFVPSKVAPAPAAVVPPTGPGMAPVPTGVFTDIPISNIRRVIAQRLMQSKQTIPHYYLSIDVNMGEVLLVRKELNKILEGRSKISVNDFIIKASALACLKVPEANSSWMDTVIRQNHVVDVSVAVSTPAGLITPIVFNAHIKGVETIANDVVSLATKAREGKLQPHEFQGGTFTISNLGMFGIKNFSAIINPPQACILAIGASEDKLVPADNEKGFDVASMMSVTLSCDHRVVDGAVGAQWLAEFRKYLEKPITMLL [DLAT],0.263,-0.12,54,52.3,-1.61,-3.92
MEKRETFVQAVSKELVGEFLQFVQLDKEASDPFSLNELLDELSRKQKEELWQRLKNLLTDVLLESPVDGWQVVEAQGEDNMETEHGSKMRKSIEIIYAITSVILASVSVINESENYEALLECVIILNGILYALPESERKLQSSIQDLCVTWWEKGLPAKEDTGKTAFVMLLRRSLETKTGADVCRLWRIHQALYCFDYDLEESGEIKDMLLECFININYIKKEEGRRFLSCLFNWNINFIKMIHGTIKNQLQGLQKSLMVYIAEIYFRAWKKASGKILEAIENDCIQDFMFHGIHLPRRSPVHSKVREVLSYFHHQKKVRQGVEEMLYRLYKPILWRGLKARNSEVRSNAALLFVEAFPIRDPNLHAIEMDSEIQKQFEELYSLLEDPYPMVRSTGILGVCKITSKYWEMMPPTILIDLLKKVTGELAFDTSSADVRCSVFKCLPMILDNKLSHPLLEQLLPALRYSLHDNSEKVRVAFVDMLLKIKAVRAAKFWKICPMEHILVRLETDSRPVSRRLVSLIFNSFLPVNQPEEVWCERCVTLVQMNHAAARRFYQYAHEHTACTNIAKLIHVIRHCLNACIQRAVREPPEDEEEEDGREKENVTVLDKTLSVNDVACMAGLLEIIVILWKSIDRSMENNKEAKLYTINKFASVLPEYLKVFKDDRCKIPLFMLMSFMPASAVPPFSCGVISTLRSREEGAVDKSYCTLLDCLCSWGQVGHILELVDNWLPTEHAQAKSNTASKGRVQIHDTRPVKPELALVYIEYLLTHPKNRECLLSAPRKKLNHLLKALETSKADLESLLQTPGGKPRGFSEAAAPRAFGLHCRLSIHLQHKFCSEGKVYLSMLEDTGFWLESKILSFIQDQEEDYLKLHRVIYQQIIQTYLTVCKDVVMVGLGDHQFQMQLLQRSLGIMQTVKGFFYVSLLLDILKEITGSSLIQKTDSDEEVAMLLDTVQKVFQKMLECIARSFRKQPEEGLRLLYSVQRPLHEFITAVQSRHTDTPVHRGVLSTLIAGPVVEISHQLRKVSDVEELTPPEHLSDLPPFSRCLIGIIIKSSNVVRSFLDELKACVASNDIEGIVCLTAAVHIILVINAGKHKSSKVREVAATVHRKLKTFMEITLEEDSIERFLYESSSRTLGELLNS [NCAPG2],-0.313,-0.0274,49.1,48.1,0.33,0.687
